Key:
[1] = biological target: the molecule itself; test: single-molecule GFP photobleaching step counting (TIRF microscopy); immobilised forked DNA incubated with 24 nM GFP-tagged WRN and 1 nM RPA, unbound washed out; steps counted in the absence of ATP; only molecules with unwinding activity (Cy3-Cy5 FRET after 1 mM ATP-Mg2+) counted; room temperature
[2] = biological target: the molecule itself; test: single-molecule GFP photobleaching step counting (TIRF microscopy); real-time binding of GFP-tagged WRN to model replication fork immobilised via biotin-streptavidin; all bound molecules counted; no ATP; 10 mM Tris-HCl pH 8.0, 50 mM NaCl; room temperature; oligomer counted on DNA

B1: GFP-tagged Werner syndrome protein (f:GFP-WRN) (enzyme)
chain: not shown
notes: Werner syndrome protein (WRN), human; cDNA encoding full-length WRN generated by RT-PCR from total RNA of HEK293T cells, subcloned into pFASTBAC1; Number of copies depends on the condition: dimer or tetramer on DNA (see measurements); also called GFP-tagged WRN; not shown: FLAG, N-terminal, kept; GFP, N-terminal, kept
stoichiometry N [1]: 2 | stoichiometry N [2]: 4
